{"source": "patent US20030060435", "proteins": {"B1": {"name": "bovine m-calpain (Sigma) (protein)", "chain 1": "AGIAAKLAKDREAAEGLGSHERAVKYLNQDYAALRDECLEAGALFQDPSFPALPSSLGFKELGPYSSKTRGIEWKRPTEICDNPQFITGGATRTDICQGALGDCWLLAAIASLTLNEEILARVVPLDQSFQENYAGIFHFQFWQYGEWVEVVVDDRLPTKDGELLFVHSAEGSEFWSALLEKAYAKINGCYEALSGGATTEGFEDFTGGIAEWYELRKAPPNLFRIIQKALQKGSLLGCSIDITSAADSEAITFQKLVKGHAYSVTGAEEVESRGSLQKLIRIRNPWGEVEWTGQWNDNCPNWNTVDPEVRETLTRQHEDGEFWMSFNDFLRHYSRLEICNLTPDTLTSDSYKKWKLTKMDGNWRRGSTAGGCRNYPNTFWMNPQYLIKLEEEDEDQEDGESGCTFLVGLIQKHRRRQRKMGEDMHTIGFGIYEVPEELTGQTNIHLSKKFFLTTRARERSDTFINLREVLNRFKLPPGEYIVVPSTFEPNKDGDFCIRVFSEKKADYQVVDDEIEANIDEIDISEDDIDDGFRRLFAQLAGEDAEISAFELQTILRRVLAKRQDIKSDGFSIETCKIMVDMLDSDGSGKLGLKEFYILWTKIQKYQKIYREIDVDRSGTMNSYEMRKALEEAGFKMPCQLHQVIVARFADDDLIIDFDNFVRCLIRLETLFRIFKQLDPENTGMIQLDLISWLSFSVL", "chain 2": "MFLVNSFLKGGGGGGGGGGLGGGLGNVLGGLISGAGGGGGGGGGGGGGGGGTAMRILGGVISAISEAAAQYNPEPVPPRTHYSNIEANESEEVRQFRRLFAQLAGDDMEVSATELMNILNKVVTRHPDLKTDGFGIDTCRSMVAVMDSDTTGKLGFEEFKYLWNNIKKWQAVYKQFDVDRSGTIGSSELPGAFEAAGFRLNEHLYNMIIRRYSDEGGNMDFDNFISCLVRLDAMFRAFKSLDKDGTGQIQVNIQEWLQLTMYS"}}, "key": {"[1]": {"target": "glyceraldehyde-3-phosphate dehydrogenase"}, "[2]": {"target": "T1, mouse wild-type p53 protein, P02340", "T1 chain": "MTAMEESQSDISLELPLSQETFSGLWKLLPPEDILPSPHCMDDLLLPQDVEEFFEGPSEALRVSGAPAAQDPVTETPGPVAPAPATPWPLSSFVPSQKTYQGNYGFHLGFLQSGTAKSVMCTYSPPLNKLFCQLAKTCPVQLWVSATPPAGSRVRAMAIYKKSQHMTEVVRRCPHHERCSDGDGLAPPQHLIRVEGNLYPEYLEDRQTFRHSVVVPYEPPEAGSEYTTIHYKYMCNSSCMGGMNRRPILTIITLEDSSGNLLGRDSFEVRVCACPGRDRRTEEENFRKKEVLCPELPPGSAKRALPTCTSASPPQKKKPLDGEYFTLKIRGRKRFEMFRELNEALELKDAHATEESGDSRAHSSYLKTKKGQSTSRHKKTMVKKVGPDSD"}, "[3]": {"target": "human wild-type p53 protein, P04637", "sequence (P04637 whole entry, looked up)": "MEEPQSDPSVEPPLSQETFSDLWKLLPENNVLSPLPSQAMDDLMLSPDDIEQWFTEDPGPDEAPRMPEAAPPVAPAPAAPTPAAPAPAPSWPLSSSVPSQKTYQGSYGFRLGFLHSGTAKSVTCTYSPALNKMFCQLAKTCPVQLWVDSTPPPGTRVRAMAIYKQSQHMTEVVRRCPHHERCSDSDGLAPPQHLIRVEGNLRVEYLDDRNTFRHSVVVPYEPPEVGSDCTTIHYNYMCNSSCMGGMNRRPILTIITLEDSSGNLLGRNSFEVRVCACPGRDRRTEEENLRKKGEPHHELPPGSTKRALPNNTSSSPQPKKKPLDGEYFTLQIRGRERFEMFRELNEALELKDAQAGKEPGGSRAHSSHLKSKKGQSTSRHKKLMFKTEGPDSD"}}, "data": [{"protein": "B1", "values": [{"measurement": "degradation of the protein in reticulocyte lysate with calcium and m-calpain", "setting": "[1]", "result": "The degradation resistance of other proteins such as dihydrofolate reductase or glyceraldehyde-3-phosphate dehydrogenase under the same experimental conditions"}, {"measurement": "degradation of the in vitro translated protein in reticulocyte lysate with calcium (electrophoresis)", "setting": "[2]", "result": "led to the rapid disappearance of the neosynthesized proteins and the appearance of proteolytic fragments"}, {"measurement": "degradation of the protein in reticulocyte lysate with calcium and m-calpain", "setting": "dihydrofolate reductase", "result": "The degradation resistance of other proteins such as dihydrofolate reductase or glyceraldehyde-3-phosphate dehydrogenase under the same experimental conditions"}, {"measurement": "degradation of the in vitro translated protein in reticulocyte lysate with calcium (electrophoresis)", "setting": "[3]", "result": "led to the rapid disappearance of the neosynthesized proteins and the appearance of proteolytic fragments"}]}]}
